Results published in paper PMC3581573 (2013).

Biological target: Recombinant Flag-tagged human PRMT5 (Homo sapiens (Human), UniProt O14744)
Assay: anti-Flag pulldown with immunoblot

Chain of Recombinant Flag-tagged human PRMT5 (O14744 whole entry): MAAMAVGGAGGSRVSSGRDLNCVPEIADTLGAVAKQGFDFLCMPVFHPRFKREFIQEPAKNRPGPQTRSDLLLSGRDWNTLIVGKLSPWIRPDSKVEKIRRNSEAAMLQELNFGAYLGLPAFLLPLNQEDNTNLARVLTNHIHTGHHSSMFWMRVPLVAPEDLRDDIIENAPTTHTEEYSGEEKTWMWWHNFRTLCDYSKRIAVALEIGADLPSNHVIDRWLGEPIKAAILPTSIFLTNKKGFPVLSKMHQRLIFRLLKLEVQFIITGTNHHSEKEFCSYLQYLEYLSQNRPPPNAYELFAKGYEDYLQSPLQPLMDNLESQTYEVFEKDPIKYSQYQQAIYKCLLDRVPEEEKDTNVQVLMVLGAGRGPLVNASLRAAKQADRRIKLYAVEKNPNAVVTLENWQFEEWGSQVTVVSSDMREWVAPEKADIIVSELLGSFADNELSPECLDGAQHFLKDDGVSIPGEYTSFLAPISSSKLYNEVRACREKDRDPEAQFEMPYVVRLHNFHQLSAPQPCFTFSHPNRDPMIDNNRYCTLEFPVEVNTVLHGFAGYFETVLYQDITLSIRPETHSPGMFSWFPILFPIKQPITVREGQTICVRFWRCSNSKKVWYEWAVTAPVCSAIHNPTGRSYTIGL

B1: Recombinant Xenopus laevis MEP50 alone (protein)
chain: MSKGSAWGRPVTAPACMEVQIGAVRYRRDGALLLAASSLSSRTWGGSIWVFKDPEGAPNESLCTAGVQTEAGVTDVAWVSEKGILVASDSGAVELWEILEKESLLVNKFAKYEHDDIVKTLSVFSDGTQAVSGGKDFSVKVWDLSQKAVLKSYNAHSSEVNCVAACPGKDTIFLSCGEDGRILLWDTRKPKPATRIDFCASDTIPTSVTWHPEKDDTFACGDETGNVSLVNIKNPDSAQTSAVHSQNITGLAYSYHSSPFLASISEDCTVAVLDADFSEVFRDLSHRDFVTGVAWSPLDHSKFTTVGWDHKVLHHHLPSEGRTENLIATKAED
B1: binds.
